Results on 2 molecules are retold here after US20210024903A1 (Pfizer, published 2021).

Assay [1] deals with Commercial, Control Toxin B wt (List Biologicals) (Clostridium difficile, UniProt P18177 2-2366). Briefly: dot blot, non-denaturing.
Assay [2] addresses wild-type C. difficile toxin B (TcdB wt, from List Bio) (C. difficile strain 630, UniProt P18177 2-2366). Briefly: dot blot, nondenaturing.

Sequence of Commercial, Control Toxin B wt (List Biologicals) (P18177 2-2366 limits assumed): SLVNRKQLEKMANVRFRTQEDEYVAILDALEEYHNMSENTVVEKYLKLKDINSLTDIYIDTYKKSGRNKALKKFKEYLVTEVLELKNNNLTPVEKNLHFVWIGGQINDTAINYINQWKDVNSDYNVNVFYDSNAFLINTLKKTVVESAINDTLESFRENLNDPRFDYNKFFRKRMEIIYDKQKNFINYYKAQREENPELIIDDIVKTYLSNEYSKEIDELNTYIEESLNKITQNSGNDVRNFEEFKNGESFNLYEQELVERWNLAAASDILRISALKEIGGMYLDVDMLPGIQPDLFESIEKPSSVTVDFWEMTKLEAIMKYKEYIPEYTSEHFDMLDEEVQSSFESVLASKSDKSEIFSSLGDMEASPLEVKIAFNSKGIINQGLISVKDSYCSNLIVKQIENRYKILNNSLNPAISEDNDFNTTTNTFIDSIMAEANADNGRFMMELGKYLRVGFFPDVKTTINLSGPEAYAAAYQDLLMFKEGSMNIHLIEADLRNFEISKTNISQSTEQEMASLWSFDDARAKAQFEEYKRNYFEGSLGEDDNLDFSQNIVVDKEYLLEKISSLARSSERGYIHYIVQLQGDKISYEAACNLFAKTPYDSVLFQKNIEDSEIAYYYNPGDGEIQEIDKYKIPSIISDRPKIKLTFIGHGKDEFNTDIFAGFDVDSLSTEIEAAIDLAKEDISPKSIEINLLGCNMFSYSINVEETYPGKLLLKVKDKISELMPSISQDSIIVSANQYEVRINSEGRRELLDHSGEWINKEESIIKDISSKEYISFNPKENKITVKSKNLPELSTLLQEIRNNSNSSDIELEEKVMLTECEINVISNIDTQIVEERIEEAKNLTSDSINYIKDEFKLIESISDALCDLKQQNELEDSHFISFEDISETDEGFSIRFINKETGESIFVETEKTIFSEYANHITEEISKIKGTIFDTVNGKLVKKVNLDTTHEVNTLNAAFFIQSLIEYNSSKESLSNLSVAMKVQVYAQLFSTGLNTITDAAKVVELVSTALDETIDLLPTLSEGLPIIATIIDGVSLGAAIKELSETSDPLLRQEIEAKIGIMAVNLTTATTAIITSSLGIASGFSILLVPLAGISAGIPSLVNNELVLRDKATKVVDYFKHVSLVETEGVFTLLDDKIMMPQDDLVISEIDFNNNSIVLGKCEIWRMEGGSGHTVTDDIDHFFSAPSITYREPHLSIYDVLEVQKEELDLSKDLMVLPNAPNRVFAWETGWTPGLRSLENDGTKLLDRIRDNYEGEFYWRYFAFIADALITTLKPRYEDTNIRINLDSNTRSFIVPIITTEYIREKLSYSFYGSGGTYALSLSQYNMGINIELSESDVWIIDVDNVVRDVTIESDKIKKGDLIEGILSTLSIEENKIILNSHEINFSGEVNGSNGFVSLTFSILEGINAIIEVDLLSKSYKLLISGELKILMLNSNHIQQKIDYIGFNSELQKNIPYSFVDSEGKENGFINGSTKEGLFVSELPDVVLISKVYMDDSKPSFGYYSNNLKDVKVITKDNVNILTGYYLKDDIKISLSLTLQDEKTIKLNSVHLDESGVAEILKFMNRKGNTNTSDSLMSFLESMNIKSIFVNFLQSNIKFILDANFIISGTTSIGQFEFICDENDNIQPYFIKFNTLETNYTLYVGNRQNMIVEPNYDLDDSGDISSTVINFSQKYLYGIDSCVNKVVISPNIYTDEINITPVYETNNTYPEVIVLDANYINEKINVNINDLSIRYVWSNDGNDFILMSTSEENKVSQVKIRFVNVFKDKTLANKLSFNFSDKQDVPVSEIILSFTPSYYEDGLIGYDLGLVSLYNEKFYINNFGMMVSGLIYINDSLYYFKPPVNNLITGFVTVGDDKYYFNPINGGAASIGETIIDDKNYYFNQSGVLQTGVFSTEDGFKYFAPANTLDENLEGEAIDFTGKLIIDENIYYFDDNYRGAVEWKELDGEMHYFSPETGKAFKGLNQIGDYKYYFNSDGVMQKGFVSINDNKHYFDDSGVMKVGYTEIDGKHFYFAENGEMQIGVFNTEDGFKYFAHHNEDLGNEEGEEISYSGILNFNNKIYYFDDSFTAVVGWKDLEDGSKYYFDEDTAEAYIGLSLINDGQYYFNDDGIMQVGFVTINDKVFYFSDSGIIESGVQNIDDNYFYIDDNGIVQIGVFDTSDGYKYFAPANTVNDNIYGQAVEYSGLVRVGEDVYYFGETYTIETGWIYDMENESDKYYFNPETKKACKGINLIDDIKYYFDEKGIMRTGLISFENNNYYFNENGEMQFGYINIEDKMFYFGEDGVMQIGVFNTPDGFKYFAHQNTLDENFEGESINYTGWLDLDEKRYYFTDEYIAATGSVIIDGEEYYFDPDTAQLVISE
Sequence of wild-type C. difficile toxin B (TcdB wt, from List Bio) (P18177 2-2366 limits assumed): as above

B1: B9-30 (antibody, V domains shown)
VH: QVQLQQPGAEVVKPGAPVKLSCKASGYPFTNYWMNWVKQRPGRGLEWIGRIDPSNSEIYYNQKFKDKATLTVDKSSSTAYIQLSSLTSEDSAVYYCASGHYGSIFAYWGQGTTLTVSS
VL: VQITQSPSYLAASPGETITINCRASKSISKYLAWYQEKPGKTNKLLIYSGSTLQSGIPSRFSGSRSGTDFTLIISSLEPEDSAMYYCQQHNEYPLTFGAGTKLELKR
Regarding B1, in assay [1], the binding result is “binds”.

B2: B9-30 mAb (antibody, V domains shown)
VH: QVQLQQPGAEVVKPGAPVKLSCKASGYPFTNYWMNWVKQRPGRGLEWIGRIDPSNSEIYYNQKFKDKATLTVDKSSSTAYIQLSSLTSEDSAVYYCASGHYGSIFAYWGQGTTLTVSS
VL: VQITQSPSYLAASPGETITINCRASKSISKYLAWYQEKPGKTNKLLIYSGSTLQSGIPSRFSGSRSGTDFTLIISSLEPEDSAMYYCQQHNEYPLTFGAGTKLELKR
On to B2, for which, in assay [2], the binding result was “binds”.
